US20250304913A1

Tests used:
OT-I TCR [1] = assay: cell-based or functional assay
OT-I TCR [2] = assay: cell-based or functional assay; remark: listed apart in the source

Row | IFN-gamma positive bait CAR T cells in the presence of OT-I target cells (OT-I TCR [2]) [%] | IL-2 positive bait CAR T cells in the presence of OT-I cells (OT-I TCR [2]) [%] | activation of bait CAR T cells (expression of CD107a) in the presence of OT-I T cells (OT-I TCR [2]) [%] | degranulation of OT-I T cells (CD107a-positive) in co-culture with bait CAR T cells (OT-I TCR [2]) [%] | Molecule | proportion of surviving OT-I cells after 18 hours of co-culture (OT-I TCR [1]) [%] | proportion of surviving OT-I cells after 36 hours of co-culture (OT-I TCR [1]) [%] | proportion of surviving OT-I cells after 60 hours of co-culture (OT-I TCR [1]) [%] | OT-I cells remaining in the population after 48 hours of co-culture (competitive survival assay) (OT-I TCR [2]) [%]
1 |  |  |  |  | OVA-MHCI Bait-CD3Zeta Fully Live CAR (peptide-MHC) | 32.1 | 19.5 | 0.69 | 
2 | 11.4 | 14.9 | 24.8 | 80.4 | OVA-MHCI Bait-SIINFEKL CAR (peptide-MHC) SIINFEKLGGGGSGGGGSGGGGSIQKTPQIQVYSRHPPENGKPNILNCYVTQFHPPHIEIQMLENGKKIPKVEMSDMSFSKDWSFYILAHTEFTPTETDTYACRVKHASMAEPKTVYWDRDMGGGGSGGGGSGGGGSGGGGSGPHSLRYFVTAVSRPGLGEPRYMEVGYVDDTEFVRFDSDAENPRYEPRARWMEQEGPEYWERETQKAKGNEQSFRVDLRTLLGYYNQSKGGSHTIQVISGCEVGSDGRLLRGYQQYAYDGCDYIALNEDLKTWTAADMAALITKHKWEQAGEAERLRAYLEGTCVEWLRRYLKNGNATLLRTDSPKAHVTHHSRPEDKVTLRCWALGFYPADITLTWQLNGEELIQDMELVETRPAGDGTFQKWASVVVPLGKEQYYTCHVYHQGLPEPLTLRWEIEFMYPPPYLDNERSNGTIIHIKEKHLCHTQSSPKLFWALVVVAGVLFCYGLLVTVALCVIWTNSRRNRGGQSDYMNMTPRRPGLTRKPYQPYAPARDFAAYRPRAKFSRSAETAANLQDPNQLFNELNLGRREEFDVLEKKRARDPEMGGKQQRRRNPQEGVYNALQKDKMAEAYSEIGTKGERRRGKGHDGLFQGLSTATKDTFDALHMQTLAPR |  |  |  | 5.01
